Assays:
crystal structure = molecular target: the molecule itself; assay: crystal structure
[1] = molecular target: purified phage T4 heads (bacteriophage T4) (UniProt P13334); assay: co-sedimentation
Chain of purified phage T4 heads (bacteriophage T4) (P13334 whole entry, looked up): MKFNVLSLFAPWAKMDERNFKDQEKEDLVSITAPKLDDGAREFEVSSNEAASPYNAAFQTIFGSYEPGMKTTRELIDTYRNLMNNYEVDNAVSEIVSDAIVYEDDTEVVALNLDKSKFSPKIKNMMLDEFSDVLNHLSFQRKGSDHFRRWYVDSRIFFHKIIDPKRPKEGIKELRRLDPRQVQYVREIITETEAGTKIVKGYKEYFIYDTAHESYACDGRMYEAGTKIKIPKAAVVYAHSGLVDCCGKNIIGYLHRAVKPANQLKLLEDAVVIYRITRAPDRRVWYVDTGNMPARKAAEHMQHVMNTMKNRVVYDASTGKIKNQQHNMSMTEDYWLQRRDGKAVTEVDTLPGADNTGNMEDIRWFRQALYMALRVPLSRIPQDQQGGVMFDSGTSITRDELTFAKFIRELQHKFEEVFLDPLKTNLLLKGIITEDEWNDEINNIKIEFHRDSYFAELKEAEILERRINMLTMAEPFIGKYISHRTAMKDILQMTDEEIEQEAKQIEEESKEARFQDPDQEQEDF

B1: gp15 C-terminal truncation mutant (residues 1-261) (domain or fragment, bacteriophage T4, UniProt P11112 1-261, looked up)
chain: MFGYFYNSSFRRYATLMGDLFSNIQIKRQLESGDKFIRVPITYASKEHFMMKLNKWTSINSQEDVAKVETILPRINLHLVDFSYNAPFKTNILNQNLLQKGATSVVSQYNPSPIKMIYELSIFTRYEDDMFQIVEQILPYFQPHFNTTMYEQFGNDIPFKRDIKIVLMSAAIDEAIDGDNLSRRRIEWSLTFEVNGWMYPPVDDAEGLIRTTYTDFHANTRDLPDGEGVFESVDSEVVPRDIDPEDWDGTVKQTFTSNVNR
stoichiometry N (crystal structure): 6

B2: bacteriophage T4 gp14, purified (natural protein)
chain: MATYDKNLFAKLENRTGYSQTNETEILNPYVNFNHYKNSQILADVLVAESIQMRGVECYYVPREYVSPDLIFGEDLKNKFTKAWKFAAYLNSFEGYEGAKSFFSNFGMQVQDEVTLSINPNLFKHQVNGKEPKEGDLIYFPMDNSLFEINWVEPYDPFYQLGQNAIRKITAGKFIYSGEEINPVLQKNEGINIPEFSELELNAVRNLNGIHDINIDQYAEVDQINSEAKEYVEPYVVVNNRGKSFESSPFDNDFMD
stoichiometry N (copies per head) [1]: 6

From PMC3746776 (Journal of molecular biology, 2013)
